Where a chain is given by its changes, count along the chain named.

Experiment [1] has as its target α-synuclein fibrils (human), P37840. Nature of the experiment: inhibition ELISA, fibrils against monomers. The following applies: remark: other sources report otherwise.
Experiment [2] has the same target. Nature of the experiment: SPR, BIAcore X100, fibrils immobilised on CM5, mAb injected. The note with it: remark: other sources report otherwise.

B1: Syn-F1 (antibody)
chain 1: DVQLVESGGDLVQPGGSRKLSCAASGFTFSSFGMHWVRQAPEKGLEWVAYINSGSSTIYYADTVKGRFTISRDNPKNTLFLQMTSLRSEDTAMYYCARGNNPGTGYYYSMDYWGQGTSVTVSS
chain 2: not shown
In experiment [1], B1 registered a Fold Affinity to Fibrils of 16600 fold. In experiment [2], this molecule had a Kd of 0.127 nM, a koff of 0.00156 s⁻¹ and a kon of 1.23e+07 M⁻¹ s⁻¹.

B2: Syn-F2 (antibody)
chain 1: B1 chain 1 with D10G, N52S, S109A
chain 2: not shown
In experiment [1], B2 yielded a Fold Affinity to Fibrils of 3140 fold. In experiment [2], the Kd is 2.69 nM, the koff was found to be 0.00338 s⁻¹ and the kon is 1.26e+06 M⁻¹ s⁻¹.

The values are drawn from patent publication US20140241987A1.
